Test: soluble fraction after stress (log2 fold change); higher = more stays soluble; pooled small domains, quantitative proteomics
Settings: stress: 75 degC
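Note: 20 min heating vs room temperature control held 20 min.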

| Sequence | soluble fraction (log2) |
| --- | --- |
| HMSSPTAKATGSSVNIRKSASTGAAVLKRVEKGTVLEAVSISDGWVKVKYSGVTGYVSADYVKVSGL | -2.19 |
| HMSSQGQNTKTGTVTASALYVRSGAGTNYSQIGYLLKNTKVEIVGQTGSWYKIKFGSGTGYVSSKYIK | -2.69 |
| HMSSQLETTFATLIGKRVSIRLHDPEGGFRDILGHLESPYSLRNRHGNLIEFAHDQIFLWREVI | -1.82 |
| HMSSRNLIIFYDSPQAENALLATAERYGAILLHHYRNLHGIAVAIPADKDMAQAVTYFSRQPGVRQV | -2.56 |
| HMSSSKVAISQFEELVDQGQVREVVIEGSTATGTTAAGRRFAAEIPPGGMELFLSKLDDAGTTYEYSPP | 0.822 |
| HMSSSYTEMQLDKLKKLLEKETLLSSEKSELKSLIHDFDKIPEVVSPLIVGEYLRLKNKYIAVINSLE | -1.25 |
| HMSSSYTEMQLERFKELLNKETLLSSEKNELKNLISDFDKISEIVSPLVVGAYLQLKNEHIETINSLG | -0.507 |
| HMSSTAIQAMIRRLIDGEDPRKPLSDARLAETLKASGVPVARRTVAKYRESMSIPSSQDRLRI | -0.577 |
| HMSSTSTKTQNIVHIVKSGETLSAIASKYGVSVDNIKKWNNLSSDKLSIGQKLKINPTTQTSS | 0.29 |
| HMSSVEEILQTLGGRIRTQRLAQGISQQVLADRAGLSLGAVRQLEGSGQSGLDTLVRVLFVLGIVDEL | -2.27 |
| HMSSVHTMEVKSTTQIKVLDENKNLSSYYSMKNPVSFNYRLFFLNQDELKKLQEDLKTNNDIQSIDIKYA | -0.484 |
| HMSTALTPLTTREREVLALMAEGLTNSGIAARLVLTDRTVETHVSRILHKLGLGETTTNEHRRVLAVLRYL | -1.72 |
| HMSTASPEELRQTPERRRLIEYLREHGGHGRTSEIAAALGIDDSTASRLLRRLADNGLIVRTQYGEYTLLQ | -0.184 |
| HMSTEAVVMSSSVSVKSSPDKASTDLFVLHEGTKVRTVSELGDWREIVIADGKKGWVEARTIET | 0.756 |
| HMSTEPLALVGKTGIAATVLRPSGRIEVDDKYYDAVSLGAFIEKGEMVNIVKYENLQLYVAKL | -2.18 |
| HMSTFAQNLRALMEKRGVSQNELARSAGLTQSAINKILTGKTKQPGIDTTEAIARVLNVSVAQLIYT | -1.4 |
| HMSTFTPYLVKVTTSVLNIRKGAGTNYGTNGSIRDMGTYTIVAEADGQGASKWGKLKSGAGWISLDYTKK | -2.33 |
| HMSTILERLIMLQEQSGMNQKQLQKELGLSNSAFSDWKKGKGRPSVEALVRFSEFFGVSMDWLAFG | -2.27 |
| HMSTKRQKELLEYVDRFITEHGYGPSYREIMNAIGYKSVSTVAIHIDGLIAKGYLRKRDNSARSLEVV | -1.17 |
| HMSTKYSSNIISLVKGLMEEDQYKDLMGPPLKKEIIKKVESITDTFPYKFDKDDKEFIVKKVLISLRK | -1.77 |
| HMSTLKSALDEIPGIGAARKRALLNHFGSTRVISSVGVKDLEQVEGVSKKIALLIYGYFHDK | -2.57 |
| HMSTLSIHIPDKFAGQRLDQALAELYSQFSRSRLQQWLNDGELLVDGKSVKANKKVLGGEFIQILK | -1.24 |
| HMSTPENLGGRNTAKARISWLENGVKQELESDFPAAEVVKLSSRFGGEVPELTVIRPSLEDIYLKMIG | -0.00898 |
| HMSTPLVATLRKRIIDGHYPPGERLAEIPVAEAFGVSRTPVRLAFRTLEQEGLLEKAGKRGYAVRA | -0.164 |
| HMSTQVPDVKERSQEEARSILESAGFKVTPAVKTEDSADIAKDMVTKTDPAAGQSVPKGTTITIYVSS | 0.126 |
| HMSTRLIGEIGVVTKDLGAGLKENGSIQIGREEWPAETKDMEHIPMGTRVKVIHIEGTRLVVEA | -0.561 |

| Sequence | soluble fraction (log2) |
| --- | --- |
| HMSTSRAEIIAFLKSNPSSEYKHELETKLDEMDWAEAVKGNSEESFLAYKQRQPNGTHNGEADEKLKVLLV | -0.0423 |
| HMSTVISPLPGNIIKVLVPEGKSVKRGDTILTIESMKMENSIKAAYDGVVKKIYVQQAQIVMQGDPLFDL | -2.86 |
| HMSVALSENIKTRRKALKMSQEYVAEQLDISRQAVAKWEAGKSEPTTENLVKLAALFEMSVSELVE | -0.969 |
| HMSVDDVALRLEFGPSDAEALAFVHRHGAILSETTDRDTGVVSVHVRLSEADAGRFNQRYGV | -0.0968 |
| HMSVDDYLKFSGSGTYWNTQDRGKTYLVNGQQRPLRDKEYLPDVMHRHVIDFITKHRDRPFYIYYSM | 0.173 |
| HMSVDVEGNQRIPTEQVLSELRDVGVSFGKRVSGLNADTIRNQMIINNDEIAWLGVNVRGSRVYVEITERI | 0.125 |
| HMSVERIEPPLPLIDTLLALRDALERPLSREENAFLSRRFAGGATRAQIDALAAQFRGAAAAESKV | 0.0516 |
| HMSVETSDLLPLIEQVLSLNPDKVKEYQNGKKGLLGFFMGQIKQTAGVAIDVGTLKPLLEDALHKDL | -0.861 |
| HMSVEYRKTLSDGNEYQIVKEKNGYVIKKSLNEGLDYLEPMKNRKYYSSYSQAFKRLNLIAKEVNINEGYD | -0.511 |
| HMSVFGMEIGKTTEAEAGRMYRLNKEQLNPYSGGYQYSVNPKAIDFSGLEQVTLIFDEKKVLVYVQAV | 0.144 |
| HMSVIETLLSDREREVLTHLVNGYDAKRIAEITGISTLTVRKHIANIYTKLHVNSKAQVISMAHKNKWF | -2.7 |
| HMSVIKERLTEFLTYKGIGQIKFAEAAGLSRGFVNVLGDGISSKSLNKISQAFPELNTLWLTTGEGEML | -1.72 |
| HMSVKTIRKTEFAKRLYSLMLEKNWNQSDLARASGMGRDSVSQYIRANNTPSPQNLKKLAEALGVEPVELY | -2.05 |
| HMSVKYLQIYHAIREKILSNEYAINQQLPDEITLTKEFNSSRMTVKKALDLLVSEGLIFRKRGQGTFVLSR | -3.67 |
| HMSVLDEVRKLSFHQRNAVFLFYFEGYSMKEIAQIFHVKEGTVSSWLTRARKQLRKQMEEEVLYDESLP | -0.473 |
| HMSVLLDDLSPREREILQLVVEGHSSTKIAGMLGLASATVDTYRSRLMAKLHIDNLPDLVRFAIRHGLIS | -2.46 |
| HMSVLLKEEGSLQLARHGAAYFIIYSAQEHPNQRRHLKISEEESNRIMEGTPIEEIFLAYSG | -1.67 |
| HMSVLQGLIESFKAGDRNLYEVAERLNVTEPFLAEALKDYRARFPKGVQVDNFWISFRPYLTIAEV | -1.17 |
| HMSVNEKVRLFRELNQWSQEEMAERMNMSVAGYAKIERGETNISLHKLKQIASVLQIDLLDLVS | -2.1 |
| HMSVPEAAERAIDVAQMRRALGELSPEQQRVLELAYFGGLTRQEIARATGTPLGTVHTRARLGLQNLRARL | -0.306 |
| HMSVPRVWTDIQGRRVKGDFEGLRGDLVVLRVGGKSYAFPLVRLIASDQAYARSLVAGNPSK | -1.5 |
| HMSVPSLVGKTDSEAQSAIKSAGLKVGTVTYQYSDETEKGYVVSQSPYSGNKVNAGSTVNIVVSKGK | 0.0467 |
| HMSVPSVAAVREQTGLSQVKFASLLGVSVRTLQEWEQGRRAPSGAARTLLMVAAKNPQALLEV | -1.31 |
| HMSVSVEEDADGRVWVYYQDQKMDITDLFDENGVYGFNLEKGDRTVYVEVTKNADGTYSFTQTD | 0.427 |
| HMSVTIENQINTYFQTRDKISRDELVALIKKDFANWTDNTINIYVSSLQKRGIIHSLSRGMYALGN | -4.25 |
| HMSVTYRLLITSSPGQAEVFLDGKRVGITPFSARLAAGWYQVRVSKEGYNLWEQHVQLREDQRLTATLT | -3.17 |

| Sequence | soluble fraction (log2) |
| --- | --- |
| HMSWAAQVVDKMTNDQLIKSLNEIVNTGKQLGLDITVEQNGDKNFIMTVKDSKGNVQLVTPIG | 0.108 |
| HMSWEQELIEKANEIIDLYPEKRSALGPLLYLAQERDGYISDESIVEISNLVGITEVQVKSVASFYSMYK | -3.62 |
| HMSWNIHEAVEYYKGQDAPQNQFALVELLKEVQEHNGGVLTDIAVEEIAALLNTKVTFLNAVIKRYPSLK | -0.661 |
| HMSYEDLIQAVSGHFGIEIRALLSEDRKKENMIPRQVAMYLLKNKLHYTYERIGNIFSGRNHTAVMYSV | -0.263 |
| HMSYGKVQFVIDAKDAVLSIDGKETDYEKPVKLTYGSHTITVYSSDYDTWKRNLYVNSEKSTVVINLA | -3.13 |
| HMSYKDIKEASDTGTYRDEENNIDVKWQKLFNGHNEYFDIEAYRDGERVEINNQQADRYIYLIKQEMD | 0.678 |
| HMSYPEIFQSLTEREQKIADMIAEHLSNKEIAEKMFLSEGTIKQYINQIYSKLQITGDIRNKRKQLIELFH | -1.62 |
| HMSYTPGQWVEASMPNATFFRIVPSGNATADKMLAVATPMKVISTSGTYVKVELDSGDVGFVPEIMV | -0.199 |
| HMTAEASELRERIRAAMATLPPAQQRVIELAYFEGLTQREIAALLNEPLGTIKTRMRLGMRKLKDVL | -2.35 |
| HMTAIKAGDLVKITGTKYYGGQTIPGWVKNQNWYVQEVSGDRAVINKNESGTNAIMSPIRVSDLTPVS | 0.036 |
| HMTALPPNVSIDSDERRLLEAIGFDPVDMDVLARDGQFSSVDLFRLLVSLELKGLVENQHGAYQRL | -1.85 |
| HMTALSAREHEVLQLITRGYTADEIAAMLQISRHTALTYVRRIYSKLKVNSKAEAIFEVRQR | -0.926 |
| HMTANPHKPEPLQIDTSDITPGVTVIHKAFGNGTVVSVDNNRILIDFDGIEKKFPFPGAFLYGFLQK | -0.547 |
| HMTAPDDFIRAEVTASGKNGMAVAELSKRVRTRFKSFKVRELGYPHLAGYLADVEGVRVYKQGRENWVAK | -0.899 |
| HMTAQASDIEKVLQVIETLGFRGHTLPGENRTAIGVTGNRGSIDPAHFENLPGVADAIRVTKPY | -0.0976 |
| HMTARPTLEKLKYMIHEAGITENSLKVIVATKGHYGLDADISTYSDDFITRWIIPNWTKIVQTISNNK | -1.81 |
| HMTASSYMGMQLGRLEELLKKEVLSLSEKTELKDLISDFDKIPEVVSPKIIGRYLQLKNQHFAKINA | -0.437 |
| HMTAVVPNFKGKLISELSNFVADKNVRYTIIDSIYDPEEKSGIVIKQDPEEKTQVKHNRIIYLYVTST | -1.51 |
| HMTDDFAGRFNELLIHNQETAVTAATRLEVSPAVITKWRQGKSIPSGEYIKRIVETYHVSADYLLGVIDTP | -0.838 |
| HMTDEEFSRIVKYTAVRYGINLYHKKVMVEGRLSNYLAANGFKSYTEYMDRVEADYTGQEAQNLINILTT | -2.53 |
| HMTDFDPDGREKLIKVQKALHFNNHQLADALRVGQATFSSYIYGRVAAGVPVRVVKAAEDLLKNSKATV | -0.531 |
| HMTDFDWSLFTQQLKRFNLFLSYDDREKLQTFQTLYGLNELDLAEYVAKASAGEKNGLNFNYLRQLINKEK | -1.46 |
| HMTDFNTFSDAIIAAVGSRASGLKVVDNAVSVMVDVSGLNEDQRVEIEADVRAAAEHAGAQSVRIMLT | -0.58 |
| HMTDLALHIGKTLRELRQRRGWSLDKTAQATGVSKAMLGQIERGESSPTVVTLWRISSGLQASFSEFLPP | -3.69 |
| HMTDLDVAVTMTVALEEAVNGATRRVRLPNGKELNVKIPAGVAAGQQIRLKGQGETAPGHRPGDVLITVNI | -0.712 |
